From patent US20210147536A1 (MAB VENTURE BIOPHARM, published 2021)

Columns and labels:
[1] = target: T1, recombinant Macaca fascicularis LAG-3-6*His tag fusion protein (Macaca fascicularis); assay: ELISA, antibody coated at 1 µg/ml, Macaca fascicularis LAG-3-6*His titrated, anti-His HRP
T1 construct: Bought protein; also called Macaca fascicularis LAG-3 antigen

[2] = target: T2, human LAG-3-mFc recombinant fusion protein (human); assay: flow cytometry, blocking of hLAG-3-mFc (10 µg/ml) binding to MHC class II on Daudi cells
T2 construct: also called hLAG-3-mFc
T2 chain: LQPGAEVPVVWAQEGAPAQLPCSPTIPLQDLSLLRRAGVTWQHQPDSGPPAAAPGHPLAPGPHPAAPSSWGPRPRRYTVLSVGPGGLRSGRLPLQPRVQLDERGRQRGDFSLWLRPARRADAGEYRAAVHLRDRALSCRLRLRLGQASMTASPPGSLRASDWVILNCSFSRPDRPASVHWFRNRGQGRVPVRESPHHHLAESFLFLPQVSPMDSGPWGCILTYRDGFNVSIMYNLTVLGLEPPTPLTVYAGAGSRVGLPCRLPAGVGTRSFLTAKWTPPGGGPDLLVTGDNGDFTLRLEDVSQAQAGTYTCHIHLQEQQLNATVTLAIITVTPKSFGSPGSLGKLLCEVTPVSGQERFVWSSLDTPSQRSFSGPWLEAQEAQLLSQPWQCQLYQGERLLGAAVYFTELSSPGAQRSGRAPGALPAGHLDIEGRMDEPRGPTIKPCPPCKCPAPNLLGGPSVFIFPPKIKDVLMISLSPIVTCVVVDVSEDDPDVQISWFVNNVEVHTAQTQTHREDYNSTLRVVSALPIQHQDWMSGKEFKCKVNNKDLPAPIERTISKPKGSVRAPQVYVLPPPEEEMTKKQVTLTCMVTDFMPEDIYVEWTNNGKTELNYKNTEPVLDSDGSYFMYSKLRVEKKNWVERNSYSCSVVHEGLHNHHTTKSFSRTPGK

[3] = target: T3, human LAG-3-6*His tag recombinant fusion protein (human, UniProt P18627 23-450, biotin-labelled in panning and in Example 9); assay: BLI (Octet Red96), biotinylated hLAG-3-6*his on SA biosensor, antibody 100 µg/mL in solution, 1:2 binding model
T3 construct: Bought protein; also called hLAG-3-6*his tag recombinant protein; human LAG-3-his tag recombinant fusion protein
T3 sequence: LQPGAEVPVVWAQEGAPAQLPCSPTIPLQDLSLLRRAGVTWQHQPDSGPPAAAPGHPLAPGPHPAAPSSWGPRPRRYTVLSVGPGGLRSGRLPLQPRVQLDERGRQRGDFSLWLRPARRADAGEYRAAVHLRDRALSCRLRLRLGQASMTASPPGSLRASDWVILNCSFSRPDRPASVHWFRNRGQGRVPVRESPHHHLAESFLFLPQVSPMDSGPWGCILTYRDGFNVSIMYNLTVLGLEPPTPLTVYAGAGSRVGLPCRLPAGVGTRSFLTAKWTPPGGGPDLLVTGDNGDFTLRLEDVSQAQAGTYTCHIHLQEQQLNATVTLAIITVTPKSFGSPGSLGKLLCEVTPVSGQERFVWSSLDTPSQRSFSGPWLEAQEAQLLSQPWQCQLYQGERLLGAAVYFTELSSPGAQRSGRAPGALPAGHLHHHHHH

[4] = target: T3, human LAG-3-6*His tag recombinant …; assay: BLI Octet Red96, MV705-3 on AHC sensor, human LAG-3-6*His at 250 nM, 1:1 model
[5] = target: T3, human LAG-3-6*His tag recombinant …; assay: BLI (Octet Red96), biotinylated hLAG-3-6*his on SA biosensor, antibody 100 µg/mL in solution, 1:2 binding model; remark: listed apart in the source
[6] = target: T4, recombinant mouse LAG-3-6*His tag fusion protein (mouse, UniProt Q61790 23-442); assay: ELISA, antibody coated at 1 µg/ml, mouse LAG-3-6*His titrated, anti-His HRP
T4 construct: made in Expi293 cells from the mouse LAG-3 cDNA; also called mouse LAG-3 antigen
T4 sequence: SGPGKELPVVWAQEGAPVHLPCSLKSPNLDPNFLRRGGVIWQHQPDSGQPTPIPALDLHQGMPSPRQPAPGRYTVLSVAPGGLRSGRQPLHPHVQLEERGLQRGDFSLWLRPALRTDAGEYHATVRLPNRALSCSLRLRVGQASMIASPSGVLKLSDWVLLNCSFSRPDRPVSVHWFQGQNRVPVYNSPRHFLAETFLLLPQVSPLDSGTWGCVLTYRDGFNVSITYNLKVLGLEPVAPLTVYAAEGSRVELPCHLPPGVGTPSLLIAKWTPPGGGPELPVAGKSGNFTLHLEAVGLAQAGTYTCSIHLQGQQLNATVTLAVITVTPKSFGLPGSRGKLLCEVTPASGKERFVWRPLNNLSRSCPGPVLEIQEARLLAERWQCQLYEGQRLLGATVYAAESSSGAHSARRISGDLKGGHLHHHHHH

[7] = target: T3, human LAG-3-6*His tag recombinant …; assay: BLI Octet Red96, MV705-3 on AHC sensor, human LAG-3-6*His at 1000 nM, 1:1 model
[8] = target: T3, human LAG-3-6*His tag recombinant …; assay: BLI (Octet Red96), biotinylated hLAG-3-6*his on SA biosensor, antibody 100 µg/mL in solution, 1:2 binding model; remark: listed apart in the source
[9] = target: T3, human LAG-3-6*His tag recombinant …; assay: ELISA, human LAG-3-6*His coated at 1 µg/ml, IgG4 titrated, anti-hIgG HRP
[10] = target: T3, human LAG-3-6*His tag recombinant …; assay: SPR BIAcore T200, antibody on CM5 chip, human LAG-3-6*His 0.352 to 45 nM as analyte

B1: anti-human LAG-3 full human monoclonal antibody MV705-3 (antibody, human IgG4, V domains shown)
VH: EVQLLESGAEVKKPGASVKVSCKASGYTFTSYGISWVRQAPGQGLEWMGWISAYNGNTNYAQKLQGRVTMTTDTSTSTAYMELRSLRSDDTAVYYCARDGWWELLRPDDAFDIWGQGTTVTVSS
VL: QLVLTQSPSVSVSPGQTASITCSGDKLGDKYAYWYQQKPGQAPVLVIYYDSDRPSGIPERFSGSNSGNTATLTISRVEAGDEADYYCQVWDSSSDQVVFGGGTQLTVLG
notes: Full IgG4 with lambda light chain; also called MV705-3(DD + DD)
- EC50 [1]: 0.11 µg/mL
- IC50 [2]: 2.8 µg/mL
- Kd [3]: 3.04 nM
- koff [3]: 0.000373 s⁻¹
- kon [3]: 122000 M⁻¹ s⁻¹
- koff [4]: < 1e-07 s⁻¹
- kon [4]: 13800 M⁻¹ s⁻¹
- Kd [5]: 4.83 nM
- koff [5]: 0.000442 s⁻¹
- kon [5]: 91600 M⁻¹ s⁻¹
- EC50 [6]: 2.6 µg/mL
- Kd [7]: 1.79 nM
- koff [7]: 0.000106 s⁻¹
- kon [7]: 59300 M⁻¹ s⁻¹
- Kd [8]: 4.83 nM
- koff [8]: 0.000442 s⁻¹
- kon [8]: 91600 M⁻¹ s⁻¹
- EC50 [9]: 0.364 µg/mL
- Kd [10]: 0.00851 nM
- koff [10]: 9.18e-07 s⁻¹
- kon [10]: 108000 M⁻¹ s⁻¹
